Results as given in patent US20090170766A1, “Chimeric Kunitz Domains and their Use” (BAYER HEALTHCARE AG, priority 2006, published 2009).
Like-named read-outs stand apart in the source and are kept apart here. Positions of bridges follow the written chain, without caps; N, C: chain ends. No end group written: not given here.

B1: TFPI mut13EA (SEQ ID NO: 18) (designed binder)
chain: EAMHSFCAFKAVTGPCKARIIRFFFNIFTRQCEEFIYGGCEGNQNRFESLEECKKMCTRD
B2: TFPI mut11EA (SEQ ID NO: 29) (designed binder)
chain: EAMHSFCAFKAVTGPCRASFPRWFFNIFTRQCEEFIYGGCEGNQNRFESLEECKKMCTRD
B3: TFPI mut12EA (SEQ ID NO: 30) (designed binder)
chain: EAMHSFCAFKASTGPCKARIIRFFFNIFTRQCEEFIYGGCEGNQNRFESLEECKKMCTRD
B4: TFPI mut3EA (SEQ ID NO: 19) (designed binder)
chain: EAMHSFCAFKAETGPCRAAHPRWFFNIFTRQCEEFIYGGCEGNQNRFESLEECKKMCTRD
modifications: ends and bridges not checked; cysteine pairing not given here
B5: TFPI mut4EA (SEQ ID NO: 20) (designed binder)
chain: EAMHSFCAFKAETGPCRAAHPRWWFNIFTRQCEEFIYGGCEGNQNRFESLEECKKMCTRD
B6: TFPI mut8EA (SEQ ID NO: 26) (designed binder)
chain: EAMHSFCAFKAYTGPCKAAIIRFFFNIFTRQCEEFIYGGCEGNQNRFESLEECKKMCTRD
B7: TFPI mut15EA (SEQ ID NO: 31) (designed binder)
chain: EAMHSFCAFKAVTGPCRAAMKRFWFNIFTRQCEEFIYGGCEGNQNRFESLEECKKMCTRD
B8: TFPI mut7EA (SEQ ID NO: 25) (designed binder)
chain: EAMHSFCAFKAYTGPCKARIIRFFFNIFTRQCEEFIYGGCEGNQNRFESLEECKKMCTRD
B9: TFPI mut10EA (SEQ ID NO: 28) (designed binder)
chain: EAMHSFCAFKAYTGPCRAAIIRFFFNIFTRQCEEFIYGGCEGNQNRFESLEECKKMCTRD
B10: TFPI mut4 (SEQ ID NO: 5) (designed binder)
chain: MHSFCAFKAETGPCRAAHPRWWFNIFTRQCEEFIYGGCEGNQNRFESLEECKKMCTRD
B11: TFPI mut2 (SEQ ID NO: 7) (designed binder)
chain: MHSFCAFKADDGPCRAAMKRFFFNIFTRQCEEFIYGGCEGNQNRFESLEECKKMCTRD
B12: TFPI random (SEQ ID NO: 10) (designed binder)
chain: MHSFCAFKAETGPCRAAMKRFFFNIFTRQCEEFIYGGCEGNQNRFESLEECKKMCTRD
B13: TFPI mut6 (SEQ ID NO: 9) (designed binder)
chain: MHSFCAFKADDGPCKAIMKRFWFNIFTRQCEEFIYGGCEGNQNRFESLEECKKMCTRD
B14: TFPI mut5 (SEQ ID NO: 8) (designed binder)
chain: MHSFCAFKADDGPCRAAHPRWWFNIFTRQCEEFIYGGCEGNQNRFESLEECKKMCTRD
B15: TFPI mut3 (SEQ ID NO: 4) (designed binder)
chain: MHSFCAFKAETGPCRAAHPRWFFNIFTRQCEEFIYGGCEGNQNRFESLEECKKMCTRD
B16: human tissue factor pathway inhibitor 1 Kunitz domain 1 (hTFPI D1) (other)
chain: MHSFCAFKADDGPCKAIMKRFFFNIFTRQCEEFIYGGCEGNQNRFESLEECKKMCTRD

Key:
human plasmin [1] = biological target: T1, human plasmin (Homo sapiens, UniProt P00747); assay: Inhibition of plasmin, fluorogenic substrate assay; format: biochemical
T1 construct: enzymatic activities of trypsin, plasmin and plasma kallikrein; purchased Enzyme Research Hplas
T1 sequence (P00747 581-810 limits assumed): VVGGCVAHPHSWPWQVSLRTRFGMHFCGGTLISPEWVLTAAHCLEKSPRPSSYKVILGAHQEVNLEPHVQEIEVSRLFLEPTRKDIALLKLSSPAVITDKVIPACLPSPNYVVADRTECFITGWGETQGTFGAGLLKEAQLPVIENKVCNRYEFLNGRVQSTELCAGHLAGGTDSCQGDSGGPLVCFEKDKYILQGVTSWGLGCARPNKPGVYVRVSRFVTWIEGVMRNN
T1 sequence (P00747 97-580 partner limits assumed): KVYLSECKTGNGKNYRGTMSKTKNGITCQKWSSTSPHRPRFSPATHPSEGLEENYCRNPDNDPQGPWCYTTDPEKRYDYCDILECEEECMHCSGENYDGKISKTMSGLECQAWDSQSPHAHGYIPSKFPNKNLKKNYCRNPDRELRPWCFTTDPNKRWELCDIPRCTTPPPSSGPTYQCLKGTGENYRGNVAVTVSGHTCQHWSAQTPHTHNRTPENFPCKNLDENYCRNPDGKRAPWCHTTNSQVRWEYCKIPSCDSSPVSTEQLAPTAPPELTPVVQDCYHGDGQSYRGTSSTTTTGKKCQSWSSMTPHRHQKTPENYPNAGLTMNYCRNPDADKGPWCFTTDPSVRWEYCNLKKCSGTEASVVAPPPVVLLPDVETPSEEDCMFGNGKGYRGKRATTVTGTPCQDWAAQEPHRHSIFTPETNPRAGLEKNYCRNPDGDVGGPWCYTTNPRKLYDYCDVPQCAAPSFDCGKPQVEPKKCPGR
Procedure: (§1) The inhibitory potency of TFPI mut3 on the enzymatic activities of trypsin, plasmin and plasma kallikrein were determined with the aid of fluorogenic substrates in biochemical assays in white 384-well microtitre plates. The assay buffer was composed of 50 mM Tris/Cl, pH 7.4, 100 mM NaCl, 5 mM CaCl2, 0.08% (w/v) BSA. The assay conditions were specifically as follows:
(§2) 10 μl of a serial dilution of TFPI mut3EA were introduced into each well and preincubated with 20 μl of enzyme at RT for 5 min. The reaction was then started by adding 20 μl of substrate to each. The measurement took place after 60-90 min in a Tecan reader with an excitation wavelength of 360 nm and an emission wavelength of 465 nm. Dose-activity plots and half-maximum inhibitory constants (IC50 values) were determined using GraphPad Prism software (version 4.02).

human plasma kallikrein [2] = biological target: T2, human plasma kallikrein (Homo sapiens, UniProt P03952); assay: Inhibition of plasma kallikrein, fluorogenic substrate assay; format: biochemical
T2 construct: purchased Calbiochem 420307
T2 sequence (P03952 391-638 limits assumed): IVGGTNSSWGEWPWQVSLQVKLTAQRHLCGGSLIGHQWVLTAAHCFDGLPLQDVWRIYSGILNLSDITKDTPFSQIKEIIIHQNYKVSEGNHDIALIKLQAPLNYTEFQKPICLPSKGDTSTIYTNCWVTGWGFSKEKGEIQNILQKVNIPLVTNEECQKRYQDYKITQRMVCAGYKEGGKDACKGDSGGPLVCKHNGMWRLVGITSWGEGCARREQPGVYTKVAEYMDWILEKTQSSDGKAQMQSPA
T2 sequence (P03952 20-390 partner limits assumed): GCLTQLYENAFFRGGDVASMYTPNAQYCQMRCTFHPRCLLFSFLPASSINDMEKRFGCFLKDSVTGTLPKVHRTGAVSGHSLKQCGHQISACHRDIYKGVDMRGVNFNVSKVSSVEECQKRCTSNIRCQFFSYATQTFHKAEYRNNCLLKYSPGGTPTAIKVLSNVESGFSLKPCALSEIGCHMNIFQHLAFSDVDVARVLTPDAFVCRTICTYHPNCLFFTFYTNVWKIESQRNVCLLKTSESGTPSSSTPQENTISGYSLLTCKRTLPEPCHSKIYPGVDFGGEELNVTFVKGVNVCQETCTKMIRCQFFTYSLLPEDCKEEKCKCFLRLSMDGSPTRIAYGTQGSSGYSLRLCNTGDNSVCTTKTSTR
Procedure: as §1, §2

human trypsin [3] = assay: Inhibition of trypsin, fluorogenic substrate assay; format: biochemical
Procedure: as §1, §2

human plasmin [4] = biological target: T3, human plasmin (human, UniProt P00747)
Target sequence in this assay (P00747 97-810 limits assumed): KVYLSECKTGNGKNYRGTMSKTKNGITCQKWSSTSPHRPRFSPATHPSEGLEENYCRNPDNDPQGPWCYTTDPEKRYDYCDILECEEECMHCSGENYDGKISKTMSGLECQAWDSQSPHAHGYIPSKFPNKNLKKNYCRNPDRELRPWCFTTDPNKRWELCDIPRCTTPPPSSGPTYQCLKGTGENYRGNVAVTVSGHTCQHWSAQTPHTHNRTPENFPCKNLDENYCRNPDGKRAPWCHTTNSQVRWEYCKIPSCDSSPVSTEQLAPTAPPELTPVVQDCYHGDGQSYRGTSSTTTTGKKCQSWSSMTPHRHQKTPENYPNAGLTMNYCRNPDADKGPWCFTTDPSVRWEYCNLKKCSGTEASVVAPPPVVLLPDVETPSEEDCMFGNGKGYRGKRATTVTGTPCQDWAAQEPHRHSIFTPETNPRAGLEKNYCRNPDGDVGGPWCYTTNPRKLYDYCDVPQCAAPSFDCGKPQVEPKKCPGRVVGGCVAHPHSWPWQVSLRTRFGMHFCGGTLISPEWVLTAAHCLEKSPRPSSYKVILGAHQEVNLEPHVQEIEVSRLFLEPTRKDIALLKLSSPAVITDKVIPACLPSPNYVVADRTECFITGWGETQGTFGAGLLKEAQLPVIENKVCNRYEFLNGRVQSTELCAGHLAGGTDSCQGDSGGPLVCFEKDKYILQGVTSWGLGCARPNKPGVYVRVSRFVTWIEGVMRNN

human trypsin [5] = biological target: T4, human trypsin (human, UniProt P07477)
human plasma kallikrein [6] = biological target: T5, human plasma kallikrein (human, UniProt P03952)
human plasmin [7] = biological target: T3, human plasmin; assay: cell-based or functional assay
human trypsin [8] = biological target: T4, human trypsin; assay: cell-based or functional assay
human plasma kallikrein [9] = biological target: T5, human plasma kallikrein; assay: cell-based or functional assay

Molecule | IC50 (human plasmin [1]) | IC50 (human plasma kallikrein [2]) | Plasmin IC50 [nM], inhibition of enzymatic activity, fluorogenic substrate (human plasmin [4]) | Trypsin IC50 [nM], inhibition of enzymatic activity, fluorogenic substrate (human trypsin [5]) | Plasma kallikrein IC50 [nM], inhibition of enzymatic activity, fluorogenic substrate (human plasma kallikrein [6]) | further results
EAMHSFCAFKAVTGPCRAAMKRFWFNIFTRQCEEFIYGGCEGNQNRFESLEECKKMCTRD (disulfide 7-57, 16-40, 32-53) [SEQ ID NO: 31] | 48 nM | 75 nM | – | – | – | –
MHSFCAFKAETGPCRAAMKRFFFNIFTRQCEEFIYGGCEGNQNRFESLEECKKMCTRD (disulfide 5-55, 14-38, 30-51) [SEQ ID NO: 10] | 27 nM | 48 nM | – | – | – | –
MHSFCAFKAETGPCRAAHPRWFFNIFTRQCEEFIYGGCEGNQNRFESLEECKKMCTRD (disulfide 5-55, 14-38, 30-51) [SEQ ID NO: 4] | 32 nM | 3 nM | – | – | – | –
MHSFCAFKADDGPCKAIMKRFWFNIFTRQCEEFIYGGCEGNQNRFESLEECKKMCTRD (disulfide 5-55, 14-38, 30-51) [SEQ ID NO: 9] | 497 nM | > 10 nM | – | – | – | –
EAMHSFCAFKAVTGPCKARIIRFFFNIFTRQCEEFIYGGCEGNQNRFESLEECKKMCTRD (disulfide 7-57, 16-40, 32-53) [SEQ ID NO: 18] | 47 nM | 1.48 nM | – | – | – | –
MHSFCAFKADDGPCKAIMKRFFFNIFTRQCEEFIYGGCEGNQNRFESLEECKKMCTRD (disulfide 5-55, 14-38, 30-51) [hTFPI D1, reference compound] | – | > 10 nM | – | – | – | –
EAMHSFCAFKAVTGPCRASFPRWFFNIFTRQCEEFIYGGCEGNQNRFESLEECKKMCTRD (disulfide 7-57, 16-40, 32-53) [SEQ ID NO: 29] | 19 nM | 16 nM | – | – | – | –
EAMHSFCAFKASTGPCKARIIRFFFNIFTRQCEEFIYGGCEGNQNRFESLEECKKMCTRD (disulfide 7-57, 16-40, 32-53) [SEQ ID NO: 30] | 56 nM | 2.34 nM | – | – | – | –
SEQ ID NO: 5: hTFPI D1 variant: MSSFCAFKAETGPCRAAHPRWWFNIFTRQCEEFIYGGCEGNQNRFESLEECKKMCTRD | – | – | – | – | – | IC50 (human plasmin [1]; human plasmin, read-out: Plasmin IC50): 24 nM; IC50 (human plasma kallikrein [2]; human plasma kallikrein, read-out: Plasma kallikrein IC50): 3 nM; IC50 (human trypsin [3]): 8 nM
EAMHSFCAFKAYTGPCRAAIIRFFFNIFTRQCEEFIYGGCEGNQNRFESLEECKKMCTRD (disulfide 7-57, 16-40, 32-53) [SEQ ID NO: 28] | 77 nM | 8 nM | – | – | – | –
EAMHSFCAFKAYTGPCKARIIRFFFNIFTRQCEEFIYGGCEGNQNRFESLEECKKMCTRD (disulfide 7-57, 16-40, 32-53) [SEQ ID NO: 25] | 52 nM | 1.19 nM | – | – | – | –
MHSFCAFKADDGPCRAAHPRWWFNIFTRQCEEFIYGGCEGNQNRFESLEECKKMCTRD (disulfide 5-55, 14-38, 30-51) [SEQ ID NO: 8] | 267 nM | 1 nM | – | – | – | –
EAMHSFCAFKAETGPCRAAHPRWFFNIFTRQCEEFIYGGCEGNQNRFESLEECKKMCTRD (disulfide 7-57, 16-40, 32-53) [SEQ ID NO: 19] | 30 nM | 3 nM | – | – | – | –
MHSFCAFKADDGPCRAAMKRFFFNIFTRQCEEFIYGGCEGNQNRFESLEECKKMCTRD (disulfide 5-55, 14-38, 30-51) [SEQ ID NO: 7] | 195 nM | 11 nM | – | – | – | –
EAMHSFCAFKAETGPCRAAHPRWWFNIFTRQCEEFIYGGCEGNQNRFESLEECKKMCTRD (disulfide 7-57, 16-40, 32-53) [SEQ ID NO: 20] | 24 nM | 2 nM | – | – | – | –
EAMHSFCAFKAYTGPCKAAIIRFFFNIFTRQCEEFIYGGCEGNQNRFESLEECKKMCTRD (disulfide 7-57, 16-40, 32-53) [SEQ ID NO: 26] | 83 nM | 194 nM | – | – | – | –

Molecule | IC50 (human plasmin [1]) | IC50 (human plasma kallikrein [2]) | Plasmin IC50 [nM], inhibition of enzymatic activity, fluorogenic substrate (human plasmin [4]) | Trypsin IC50 [nM], inhibition of enzymatic activity, fluorogenic substrate (human trypsin [5]) | Plasma kallikrein IC50 [nM], inhibition of enzymatic activity, fluorogenic substrate (human plasma kallikrein [6]) | further results
B1 | – | – | 47 nM | 20 nM | 1480 nM | –
B2 | – | – | 19 nM | 4 nM | 16 nM | –
B3 | – | – | 56 nM | 21 nM | 2340 nM | –
B4 | – | – | 30 nM | 5 nM | 3 nM | –
B5 | – | – | 24 nM | 7 nM | 2 nM | –
B6 | – | – | 83 nM | 64 nM | 194 nM | –
B7 | – | – | 48 nM | 1 nM | 75 nM | –
B8 | – | – | 52 nM | 38 nM | 1190 nM | –
B9 | – | – | 77 nM | 17 nM | 8 nM | –
B10 | – | – | 24 nM | 8 nM | 3 nM | –
B11 | – | – | 195 nM | 19 nM | 11 nM | –
B12 | – | – | 27 nM | 6 nM | 48 nM | –
B13 | – | – | 497 nM | 36 nM | > 10000 nM | –
B14 | – | – | 267 nM | 266 nM | 1 nM | –
B15 | – | – | 32 nM | 5 nM | 3 nM | –
B16 | – | – | – | – | – | Plasmin IC50 [nM], inhibition of enzymatic activity, fluorogenic substrate (human plasmin [7]): 559 nM; Trypsin IC50 [nM], inhibition of enzymatic activity, fluorogenic substrate (human trypsin [8]): 44 nM; Plasma kallikrein IC50 [nM], inhibition of enzymatic activity, fluorogenic substrate (human plasma kallikrein [9]): > 10000 nM
